± gives the standard deviation.
Assay: protein stability index of a GFP-peptide fusion (GPS, HEK-293T) (PSI 1-6); higher = more stable
[1] = treatment: DMSO, c terminus: a fixed tail appended
[2] = treatment: MLN4924 1 uM, 8 h, c terminus: a fixed tail appended
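Further: 24-mer peptide tiles fused after GFP, lentivirally expressed, FACS-sorted into six equal bins by GFP/DsRed ratio, decoded by Illumina sequencing, PSI is the read-weighted mean bin number.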

Sequence | protein stability index [1] | protein stability index [2] | protein stability index (treatment: DMSO, c terminus: native) | protein stability index (treatment: MLN4924 1 uM, 8 h, c terminus: native)
DDEEFEYRHVMLPKDIAKLVPKTH [CKS1B] | 4.38 ± 0.23 | 4.39 ± 0.32 |  | 
AVLPTAFRVAKKRAPKVLGTTLVV [GDAP1] | 2.18 ± 0.2 | 2.15 ± 0.2 |  | 
NHCMLSPSSSGHLADSDTLSSAEE [C18orf25] | 5.36 ± 0.19 | 5.4 ± 0.098 |  | 
RMAIGYLHSHRHLYPEGIGARQQQ [POMT2] | 2.9 ± 0.22 | 3.08 ± 0.21 |  | 
RQFEFSVDSFQIILDSLLFFYDCS [TENT5C] | 3.06 ± 0.57 | 3.04 ± 0.61 |  | 
ESRDRPSCAPSASIPKLKLTRPVP [PWWP2B] | 4.26 ± 0.2 | 4.16 ± 0.14 |  | 
YSEYPECCVDVKPISQEKIESERA [DUSP5] | 4.57 ± 0.39 | 4.69 ± 0.66 |  | 
LLTLPRPPLSGALASITETIQVHR [HDAC6] | 3.12 ± 0.13 | 3.22 ± 0.28 |  | 
ESVEGVVRILLEHYYKENDPSVRL [INTS4] | 2.22 ± 0.46 | 2.46 ± 0.16 |  | 
TVEEAKAEKETELSLQKEQLQLKI [TRIM29] | 5.1 ± 0.27 | 5.33 ± 0.3 |  | 
SGESGLRRRGSDPASGEVEASQLR [TMEM40] | 5.56 ± 0.11 | 5.51 ± 0.22 |  | 
EQYERNKSSSSSSSSSSSSSSSSS [TMEM40] | 5.46 ± 0.32 | 5.49 ± 0.27 |  | 
LGRSLTAVFMWPGKDSRWLPSLVL [SLC29A1] | 2.98 ± 0.22 | 2.83 ± 0.47 |  | 
FGGGCDLTPTYLNQEDAIHFHRTL [CPOX] | 2.62 ± 0.4 | 2.81 ± 0.3 |  | 
REFDVRQTPQVNINPFTPDSLLLH [WEE1] | 3.41 ± 0.47 | 3.52 ± 0.15 |  | 
RMLVAASWACAFTNALTHTVAMST [OR3A1] | 3.07 ± 0.24 | 3.18 ± 0.5 |  | 
LGLLFERHWHRPVLMAVSVHSERK [SCNN1D] | 2.21 ± 0.23 | 2.33 ± 0.24 |  | 
VLPCIQQIQRISLNTLTLNVKSEK [FLOT1] | 2.84 ± 0.14 | 2.98 ± 0.24 |  | 
EEDRPLGGGEGHQPAGNRRGQARR [BEX3] | 5.72 ± 0.14 | 5.563 ± 0.048 |  | 
EPVAEIGVGAYGTVYKARDPHSGH [CDK4] | 4.11 ± 0.32 | 4.1 ± 0.28 |  | 
CCSSADICPKCWTLMTMAIRIIDR [PRIM1] | 2.25 ± 0.18 | 2.44 ± 0.55 |  | 
NLIKSENYGKILVEKNEHCIENNI [R3HDM1] | 3.5 ± 0.5 | 3.49 ± 0.65 |  | 
QEENKSLREENKALREENRMLSKE [CBY2] | 5.56 ± 0.47 | 5.587 ± 0.023 |  | 

Sequence | protein stability index [1] | protein stability index [2] | protein stability index (treatment: DMSO, c terminus: native) | protein stability index (treatment: MLN4924 1 uM, 8 h, c terminus: native)
QLSPNKHFSLRVQSRANGVKYPEL [PCDHGA10] | 3 ± 0.18 | 3.02 ± 0.23 |  | 
VTTRQVRTIVEEVQDGKVISSREQ [KRT17] | 4.87 ± 0.3 | 4.87 ± 0.36 |  | 
QEQVAGGEAQPGLPQEDPSTSQGC [FEM1A] | 5.34 ± 0.12 | 5.42 ± 0.43 |  | 
SISASSARFVSSGSGGGYGGGMRV [KRT15] | 3.02 ± 0.22 | 3.55 ± 0.23 |  | 
EEPAEKEDLLQQMLERRYTPYPNL [CLCN6] | 4.4 ± 0.19 | 4.44 ± 0.37 |  | 
DQEMARDLVERALYSMECAFHPLF [TCF25] | 2.35 ± 0.34 | 2.09 ± 0.35 |  | 
RGQARRLAPNFRWAIPNRQINDGM [BEX3] | 3.1 ± 0.24 | 3.03 ± 0.47 |  | 
QLSMLPHLADLVSYSIQKVIGFAK [VDR] | 2.28 ± 0.2 | 2.48 ± 0.5 |  | 
DYLTVKVWDLNMEARPIETYQVHD [PPP2R2C] | 2.69 ± 0.34 | 2.86 ± 0.16 |  | 
EQTCDPDSSLHWSSSYSPETFRQQ [ZNF396] | 4.43 ± 0.12 | 4.58 ± 0.12 |  | 
RPELGAALGIYGAPYAAAAAAQSY [IRX6] | 2.73 ± 0.12 | 2.92 ± 0.46 |  | 
GLLSKTAGFSPDCIMDDAINILQN [INTS4] | 2.91 ± 0.33 | 2.89 ± 0.17 |  | 
QPGPSGAPAQRATRGFLRSPSSDL [RETREG3] | 3.97 ± 0.24 | 4.27 ± 0.23 |  | 
NLLLAKGANINAFDKKDRRALHWA [ANKRD44] | 2.32 ± 0.34 | 2.5 ± 0.17 |  | 
EGYKDADYWLRRFEAEPLPENTNR [PI4K2A] | 4.52 ± 0.13 | 4.41 ± 0.16 |  | 
GGIETGSITEMFGEFRTGKTQICH [RAD51] | 3.63 ± 0.34 | 3.71 ± 0.51 |  | 
GSAPPRATPGGGTGEAARPHKGLN [PCDHGC5] | 5.19 ± 0.34 | 5.26 ± 0.32 |  | 
YFYMSCLVKHKRIHSREKRGDSVK [ZNF649] | 1.73 ± 0.16 | 2.38 ± 0.55 |  | 
FAGGFVDFGACDGGLLTGNEKITM [KRT13] | 2.73 ± 0.32 | 2.56 ± 0.079 |  | 
LDFSKKILHTAWHPSENIIAVAAT [PPP2R2B] | 2.05 ± 0.2 | 2.3 ± 0.039 |  | 
FEEPEDPSNRSFFSEIISSISDVK [PPP2R2B] | 4.09 ± 0.18 | 4.32 ± 0.15 |  | 
KISVPRDVMLEELSLLTNRGSKMF [MYOZ1] | 2.8 ± 0.28 | 2.76 ± 0.35 |  | 
SPQFEGPLSPPPINYNGIFSLKQE [NEUROD6] | 3.96 ± 0.11 | 4.05 ± 0.17 |  | 

Sequence | protein stability index [1] | protein stability index [2] | protein stability index (treatment: DMSO, c terminus: native) | protein stability index (treatment: MLN4924 1 uM, 8 h, c terminus: native)
LRDPLTSLSHTELEAAEVILEHAH [FCHSD1] | 4.29 ± 0.25 | 4.44 ± 0.32 |  | 
LPLETARESPSFKLEPMETERSPG [ZNF263] | 5.24 ± 0.13 | 5.36 ± 0.13 |  | 
EPDANFPQFLHEGLSKPVYVINWF [FAM104B] | 2.37 ± 0.43 | 2.48 ± 0.36 |  | 
FPETTFISVTAYQNPQITQLKIAA [TBX6] | 2.58 ± 0.72 | 2.73 ± 0.59 |  | 
AEVQAKLENAEVLELTVRRVQGVL [HES6] | 2.71 ± 0.38 | 2.58 ± 0.25 |  | 
RKNPYPTKGEKIMLAIITKMTLTQ [IRX6] | 2.61 ± 1 | 2.74 ± 0.62 |  | 
KDPKAGDSKSGGSGSESDHTTRSS [DVL3] | 5.3 ± 0.38 | 5.53 ± 0.23 |  | 
VELLKNLTKYPTDRDSIWKCLKFL [INTS4] | 2.63 ± 0.28 | 2.08 ± 0.22 |  | 
VSDSLTWREFHYIQSKLGIVSLLL [STEAP1] | 2.45 ± 0.54 | 2.18 ± 0.25 |  | 
TEGAFGLYRGLAPNFMKVIPAVSI [SLC25A25] | 1.88 ± 0.51 | 2.39 ± 0.66 |  | 
ATKKLGFKHPVIGVHVRRTDKVGT [FUT8] | 3.12 ± 0.091 | 3.15 ± 0.21 |  | 
REAQQYSEALASTRILKHSPESSR [GLIPR2] | 4.92 ± 0.27 | 4.92 ± 0.3 |  | 
SYFDRGAKGGSRLCTPEGWFSCQG [DFFB] | 2.46 ± 0.14 | 2.6 ± 0.18 |  | 
QFRMAQEEARRNRLMRDMAQLRLQ [SMG5] | 2.95 ± 0.21 | 3.25 ± 0.26 |  | 
SKFKKLMKQGGAALEGSALANGRA [DLX1] | 3.78 ± 0.34 | 4 ± 0.26 |  | 
SVICRSLPEGMGPGESGQPPPAC [ALKBH7] |  |  | 2.87 ± 0.71 | 3.5 ± 0.69
DESVVMPESQMCRKFSRECEDQKQ [NEUROD6] | 5.46 ± 0.3 | 5.43 ± 0.24 |  | 
FLCAAGDAGEESRVQVLKNEVRRG [TIAF1] | 4.18 ± 0.31 | 4.22 ± 0.11 |  | 
VQKEHEEYMKNLLKVGGILVMPLE [PCMTD2] | 2.69 ± 0.21 | 2.7 ± 0.17 |  | 
KLPLQIDCLAAWEEWLLVGTKQGH [VPS39] | 2.43 ± 0.41 | 2.47 ± 0.14 |  | 
LSQRTITVGVYEAAKLLNVDPDNV [GADD45A] | 3.16 ± 0.29 | 3.14 ± 0.19 |  | 
PMDLSTVKRKMDGREYPDAQGFAA [BRD3] | 4.21 ± 0.2 | 4.38 ± 0.43 |  | 
DDHECCERVVINISGLRFETQLKT [KCNA1] | 2.79 ± 0.3 | 2.61 ± 0.25 |  | 

Sequence | protein stability index [1] | protein stability index [2] | protein stability index (treatment: DMSO, c terminus: native) | protein stability index (treatment: MLN4924 1 uM, 8 h, c terminus: native)
GYPTYKEKVKKRPGGRPEVIYNYV [BTBD10] | 2.41 ± 0.16 | 2.85 ± 0.33 |  | 
PEELRKVFITYSMDTAMEVVKFVN [TRAF3IP2] | 2.24 ± 0.46 | 2.08 ± 0.37 |  | 
SISELKHALSGHAKVKPFDPKITC [TPH1] | 2.77 ± 0.45 | 2.93 ± 0.37 |  | 
STNGELNVDDPTGAHSNAPITAHA [CSNK1G1] | 5.39 ± 0.15 | 5.29 ± 0.33 |  | 
DDMLLFDEQEKGIVTKFYQLSATG [FAN1] | 3.57 ± 0.3 | 3.46 ± 0.2 |  | 
IMDANQTYLVSERLEREERNQTQV [FAF2] | 4.16 ± 0.2 | 4.32 ± 0.1 |  | 
DPHSGHFVALKSVRVPNGGGGGGG [CDK4] | 4.01 ± 0.12 | 3.87 ± 0.33 |  | 
LLAYLIRNGSERVVTSAREHIYDL [CLINT1] | 2.85 ± 0.33 | 2.41 ± 0.28 |  | 
LAIQEMVSLTSPSAPPTSRTSSGN [PPFIA4] | 3.88 ± 0.19 | 4.05 ± 0.17 |  | 
IELNGGQPPLTYKRFQTLISKMEP [CRY1] | 2.53 ± 0.3 | 2.51 ± 0.16 |  | 
GAGIIVTEAGGVLMDVTGGPFDLM [IMPA1] | 2.28 ± 0.4 | 2.48 ± 0.39 |  | 
SRASAARVGQLQEALNERHSIINA [LRRC45] | 4.01 ± 0.38 | 3.97 ± 0.19 |  | 
EIDSVPKTQSELASESEHIPKPQS [MIA2] | 5.42 ± 0.26 | 5.49 ± 0.2 |  | 
LFDNPKLDKELRAMLREKFPEFCS [INTS3] | 2.03 ± 0.32 | 2.54 ± 0.31 |  | 
AKGNTALHDCAESGSLEILQLLLG [FEM1A] | 2.41 ± 0.23 | 2.16 ± 0.26 |  | 
HLSRLCVRHNLGDTRLGQVSALPL [SPSB2] | 2.38 ± 0.14 | 2.54 ± 0.33 |  | 
SYKDLDVIFGVELPGNEEFQVVKD [TENT5D] | 3.84 ± 0.24 | 3.88 ± 0.099 |  | 
AFHVRRTNRVKECLAKGTFSDVTF [RHOBTB2] | 2.57 ± 0.24 | 2.78 ± 0.4 |  | 
FDLCDRTFSLKTVLMIAIQLISRM [CSNK1G3] | 2.89 ± 0.21 | 2.54 ± 0.46 |  | 
FKISGMNGIHVCMVFEVLGHHLLK [SRPK2] | 3.01 ± 0.34 | 2.92 ± 0.31 |  | 

Reference: the supplement of paper PMC10567573
